The text below walks through data of patent publication CN115960240A (CHINESE ACADEMY OF MEDICAL SCIENCES HEMATOLOGIC DISEASE …, dated 2023).

The target in one assay is T1, 人BCMA (B细胞成熟抗原) (human, UniProt Q02223 1-184).
T1 construct: whole, on cells; Endogenous BCMA on H929 cells; also called B-cell maturation antigen; H929细胞表面BCMA蛋白
T1 sequence (looked up): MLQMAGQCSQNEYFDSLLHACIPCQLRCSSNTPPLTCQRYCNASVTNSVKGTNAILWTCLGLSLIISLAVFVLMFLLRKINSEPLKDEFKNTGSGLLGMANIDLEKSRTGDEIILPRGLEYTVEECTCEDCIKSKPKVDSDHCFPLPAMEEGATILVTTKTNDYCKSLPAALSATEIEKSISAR
The experiment in a line: FACS titration (400 nM to 0.025 nM) on H929 cells, mean fluorescence, fitted in GraphPad Prism 7.

The target in the next assay is T2, 人CD3 (human, UniProt P07766 23-207).
T2 construct: whole, on cells; also called Jurkat细胞表面CD3蛋白
T2 sequence (P07766 23-207): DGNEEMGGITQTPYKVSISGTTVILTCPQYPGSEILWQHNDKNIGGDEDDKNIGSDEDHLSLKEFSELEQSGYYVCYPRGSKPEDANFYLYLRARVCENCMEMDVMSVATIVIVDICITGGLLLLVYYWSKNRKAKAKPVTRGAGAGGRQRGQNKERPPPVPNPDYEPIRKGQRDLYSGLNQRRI
The experiment in a line: FACS titration (400 nM to 0.025 nM) on Jurkat cells, mean fluorescence, fitted in GraphPad Prism 7.

B1: 四价双特异性抗体Tandab(CD3/BCMA) (bispecific antibody)
chain: DADIELTQSPAIMSASPGEKVTMTCSASSSVSYMNWYQQKSGTSPKRWIYDTSKLASGVPARFSGSGSGTSYSLTISGMEAEDAATYYCQQWSSNPFTFGCGTKLELKRGGGGSQVQLQQSGAEVVRPGTSVKVSCKASGYAFTNYLIEWVKQRPGQGPEWIGVITPGRGDTKYNAKFAGKATLTADKSSSTAYMQLSSLTFDDSAVYFCARGTTAWFPYWGQGTLVTVSAGGGGSGGGGSGGGGSDIVLTQSPASLTVSLGQRATISCRASKSVSTSGYSYMHWYQQKPRQPPKLLIYLASNLESGVPARFSGSGSGTDFTLNIHPVEEEDAATYYCQHSRDLPYTFGGGTKLEIKRAGGGGSQVQLQQSGAELARPGASVKMSCKASGYTFTRYTMHWVKQRPGQCLEWIGYINPSRGYTNYNQKFKDKATLTTDKSSSTAYMELTRLTSEDSAVYYCARYYDDHYSLDYWGQGTTVTVSSHHHHHH
notes: Tetravalent tandem diabody made from anti-BCMA mAb 69G8 and anti-CD3 mAb HIT3a, expressed in ExpiCHO-S cells and purified on a nickel column; detected with an anti-His secondary antibody, so it carries a His tag
One may read the Kd as the constant that tells how readily two partners part at equilibrium. Turning to B1, the Kd with 人BCMA (B细胞成熟抗原) and in the assay with 人CD3 was 1.96 nM throughout.
